Assay results reported in patent US20080300163A1.

What was measured:
[1] = target: T1, full length rat GHR (L43R) on BAF3 cells (clone 2E2-2B12-F4) (rat) (UniProt P16310); test: cell-based or functional assay
T1 sequence (looked up): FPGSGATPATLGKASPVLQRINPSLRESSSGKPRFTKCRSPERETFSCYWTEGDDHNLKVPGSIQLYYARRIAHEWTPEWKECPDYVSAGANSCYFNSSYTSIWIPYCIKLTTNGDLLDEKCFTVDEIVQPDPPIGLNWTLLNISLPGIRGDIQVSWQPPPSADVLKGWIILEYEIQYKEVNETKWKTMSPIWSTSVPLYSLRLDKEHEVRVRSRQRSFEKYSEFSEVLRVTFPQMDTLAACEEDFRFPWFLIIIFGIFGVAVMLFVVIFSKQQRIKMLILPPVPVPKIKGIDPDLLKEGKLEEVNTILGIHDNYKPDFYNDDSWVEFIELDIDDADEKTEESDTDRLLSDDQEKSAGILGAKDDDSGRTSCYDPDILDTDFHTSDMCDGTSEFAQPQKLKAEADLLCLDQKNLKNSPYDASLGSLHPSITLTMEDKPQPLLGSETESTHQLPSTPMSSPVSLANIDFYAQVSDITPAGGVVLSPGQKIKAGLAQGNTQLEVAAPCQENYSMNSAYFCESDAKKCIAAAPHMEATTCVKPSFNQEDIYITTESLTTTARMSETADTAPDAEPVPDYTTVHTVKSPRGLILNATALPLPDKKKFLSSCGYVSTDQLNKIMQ

[2] = target: human growth hormone receptor on IM-9 cells (human) (UniProt P10912); test: cell-based or functional assay
Sequence of UniProt P10912 (P10912 19-638): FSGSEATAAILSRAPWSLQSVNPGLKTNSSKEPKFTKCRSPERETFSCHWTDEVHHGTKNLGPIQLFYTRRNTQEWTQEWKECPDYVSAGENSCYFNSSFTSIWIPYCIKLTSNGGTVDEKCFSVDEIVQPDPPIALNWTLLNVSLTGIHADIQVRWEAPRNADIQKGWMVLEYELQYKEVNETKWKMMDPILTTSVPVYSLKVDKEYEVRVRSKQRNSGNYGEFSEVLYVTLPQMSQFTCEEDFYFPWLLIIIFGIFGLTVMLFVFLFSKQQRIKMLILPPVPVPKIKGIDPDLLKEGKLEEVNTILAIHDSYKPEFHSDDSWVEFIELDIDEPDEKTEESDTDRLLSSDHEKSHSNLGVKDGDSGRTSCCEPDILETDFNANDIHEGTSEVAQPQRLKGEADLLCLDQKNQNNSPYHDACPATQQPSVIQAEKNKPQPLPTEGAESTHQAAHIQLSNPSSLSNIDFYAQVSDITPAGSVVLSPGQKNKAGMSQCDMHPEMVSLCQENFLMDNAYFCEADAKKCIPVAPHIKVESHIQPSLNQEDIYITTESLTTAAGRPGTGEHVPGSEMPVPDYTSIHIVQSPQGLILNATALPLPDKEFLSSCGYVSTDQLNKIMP

Row | Substance | Proliferation EC50 [1] | pSTAT5 EC50 (nM) [2]
1 | G131pAF-30KPEG hGH (from UniProt P01241 27-217) (ligand) | 4.6 nM | 23.8 nM
2 | R134pAF-20KPEG hGH (from UniProt P01241 27-217) (ligand) |  | 5.3 nM
3 | Y143pAF-30KPEG hGH (from UniProt P01241 27-217) (ligand) | 6.6 nM | 12.3 nM

Next, values leading:

Row | Proliferation EC50 [1] | pSTAT5 EC50 (nM) [2] | Substance
4 | 5.3 nM | 20.6 nM | K145pAF-30KPEG hGH (from UniProt P01241 27-217) (ligand)
5 | 24 nM | 53.3 nM | Y35pAF-40KPEG hGH (from UniProt P01241 27-217) (ligand)
